The record followed here is PMC8013792, “Bacterial protein domains with a novel Ig‐like fold target human CEACAM receptors” (The EMBO Journal, 2021).

Sequences and labels used below:
B3: tag-less CEACAM1 N-terminal domain, unglycosylated (domain or fragment, human)
chain: AQLTTESMPFNVAEGKEVLLLVHNLPQQLFGYSWYKGERVDGNRQIVGYAIGTQQATPGPANSGRETIYPNASLLIQNVTQNDTGFYTLQVIKSDLVNEEATGQFHVY
notes: CEACAM1, human, N-terminal IgV-like domain, tag-less; also called rCEACAM1-N; CC1-N; source: E. coli (pET21d), purified
B4: IgI3 domain of R28 protein, recombinant, as used in ITC (domain or fragment)
chain: KYSPEAKHRTVEQHAELDAKDSIANTDELPSNSTYNWKNGHKPDTSTSGEKDGIVEVHYPDGTVDDVNVKVTVTSKKTDNTAPTLTVTPEQQTVKVDEDITFTVTVEDENEVELGLDDLKAKYENDIIGARVKIKYLTKEPNKKVMEVTIMKATLADKGAITFTAKDKAGNQAEPKTVTINVLPLK
modifications: Construct limits not printed. 233-418 is the unannotated region between the AlphaC C-terminal domain (ends 232) and the first annotated Rib repeat (starts 419); it should enclose the IgI3 domain …

The target in assay [1] is IgSF (IgI3) domain of β protein, recombinant, as used in ITC (Streptococcus agalactiae (GBS)). The assay is described as follows: ITC; iTC200, 25°C, 30 mM Tris-HCl, 150 mM NaCl, pH 7.5; typically 500 µM unglycosylated CEACAM-N domain in the syringe, 50 µM IgI3 domain; duplicates. Background: In ITC the heat of successive injections is recorded.
The target in assay [2] is β-IgI3 F42A, as used in ITC (Streptococcus agalactiae (GBS)). The assay is described as above.
Assay [3] has as its target β-IgI3 D55A, as used in ITC (Streptococcus agalactiae (GBS)). The description is as above.
In assay [4] the target is β-IgI3 V53A, as used in ITC (Streptococcus agalactiae (GBS)). The assay is described as above.
The target of assay [5] is T1, tag-less unglycosylated CEACAM1 N-terminal domain (rCEACAM1-N, pET21d) (human, UniProt P13688 34-141).
T1 construct: N-terminal IgV-like domain of human CEACAM1; also called rCC1-N; CC1-N; source: E. coli, pET21d, purified as in Bonsor et al, 2015a
T1 sequence: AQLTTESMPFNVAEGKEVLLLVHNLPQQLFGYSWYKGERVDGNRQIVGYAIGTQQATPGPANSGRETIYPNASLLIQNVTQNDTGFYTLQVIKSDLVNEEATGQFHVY
The assay can be described thus: ITC; iTC200, 25 °C, 16 injections of 2.42 µL; typically 500 µM unglycosylated CEACAM-N in the syringe and 50 µM β-IgSF/β-IgI3; 30 mM Tris-HCl, 150 mM NaCl, pH 7.5; duplicates. To be noted: both partners purified.

For assay [6], the target named is B4. The assay can be described thus: ITC; iTC200, 25°C, 30 mM Tris-HCl, 150 mM NaCl, pH 7.5; typically 500 µM unglycosylated CEACAM-N domain in the syringe, 50 µM IgI3 domain; duplicates. As to conditions: both partners purified.
Assay [7] addresses B3. The description is as above. To be noted: both partners purified.

For orientation: Kd means the concentration at which binding is half-saturated. On to “CEACAM5 N-terminal domain, unglycosylated (domain or fragment)”, for which, in assay [1], the equilibrium dissociation constant (Kd) was 152 nM.
As for “tag-less CEACAM1 N-terminal domain, unglycosylated (from UniProt P13688 34-141) (domain or fragment)”, the Kd was 96 nM in assay [1], 16 nM in assay [2], 690 nM in assay [3] and 562 nM in assay [4].
Take “tag-less CEACAM1-N L95A, unglycosylated (from UniProt P13688 34-141) (domain or fragment)”: the Kd in assay [1] is 1350 nM.
Turning to “tag-less CEACAM1-N N97A, unglycosylated (from UniProt P13688 34-141) (domain or fragment)”, in assay [1], the dissociation constant Kd amounted to 490 nM.
In the case of “tag-less CEACAM1-N Q44A, unglycosylated (from UniProt P13688 34-141) (domain or fragment)”, the Kd in assay [1] was found to be 996 nM.
Turning to “tag-less CEACAM1-N V96A, unglycosylated (from UniProt P13688 34-141) (domain or fragment)”, the Kd in assay [1] was determined as 370 nM.

B1: β-IgI3 L45A (rβIgI3ΔL45A-His) (domain or fragment)
chain: ANENNQQKIELTVSPENITVYEGEDVKFTVTAKSDSKTTLDFSDALTKYNPSVSDRISTNYKTNTDNHKIAEITIKNLKLNESQTVTLKAKDDSGNVVEKTFTITVQKKEEKQ
notes: the substitution is still to be applied; its number counts on the domain's own 1-113; source: E. coli RG (Rosetta Gami), purified (Nickel column)
Consider B1, for which binding in assay [5] was put at a Kd of 234 nM.

B2: β-IgI3 S52A (rβIgI3ΔS52A-His) (domain or fragment)
chain: ANENNQQKIELTVSPENITVYEGEDVKFTVTAKSDSKTTLDFSDLLTKYNPAVSDRISTNYKTNTDNHKIAEITIKNLKLNESQTVTLKAKDDSGNVVEKTFTITVQKKEEKQ
notes: as for B1
In assay [5], B2 yielded a Kd of 85 nM.
In the case of B3, the dH in assay [6] was -4.8 ± 0.3 kcal/mol.
With B4, binding in assay [7] was put at a Kd of 1050 ± 18 nM.
